The supplement of paper PMC10567573

B1: MNAT1 (parent)
chain: LAPIHKLEEALYEYQPLQIETYGP

Variants of: B1
Test: protein stability index of a GFP-peptide fusion (GPS, HEK-293T) (PSI 1-6); higher = more stable
Conditions: c terminus: a fixed tail appended
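Further: lentivirally expressed fusions sorted by FACS into six bins by GFP to DsRed ratio, PSI derived from sequencing read proportions per bin multiplied by bin number.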

Protein stability index, by site and new letter:
Q18: C 2.21; L 1.28; P 2.76; E 2.08; G 1.51; D 3.99; V 2.25; N 1.92; F 2.9; H 1.91; S 1.86; M 1.85; Y 1.37; W 1.96; I 1.94; A 1.84
A10: K 2.52; I 2.1; F 2.45; P 2.73; W 1.8; E 3.04; T 1.79; L 1.69; Q 2.42; Y 2.35; N 2.69; R 2.05; C 2.09; V 2.71; H 2.28; D 2.91; M 1.45; G 2.88; S 2.28
G23: V 2.79; C 1.44; I 2.07; F 1.92; H 2.67; E 1.86; N 1.85; K 2.86; R 1.15; M 2.17; Q 2.02; A 2.16; D 1.3; L 2.56; S 2.1; P 1.67; T 1.3
E20: I 2.71; D 1.95; S 1.71; A 1.32; H 1.6; Q 2.19; Y 2.74; G 1.98; R 1.79; T 1.28; W 2.88; P 2.59; M 1.47; K 3.27
Y22: C 1.96; M 2.01; H 1.91; K 2.8; P 2.88; N 2.74; A 2.18; V 1.76; S 2.4; W 2.1; E 3.19; F 3.02; T 2.64; R 1.73; Q 2.66; L 2.63; I 1.81
T21: N 2.5; M 3.53; Y 2.38; K 2.5; R 2.09; L 3.23; D 2.31; C 3.14; G 1.98; E 1.8; Q 1.57; P 2.46; S 2.23; W 3.09; A 2.6; F 5.16; H 1.62
E9: F 2.25; P 2.25; S 1.71; M 2.34; L 3.09; D 2.25; N 1.78; H 2.15; V 3.14; T 2.16; C 2.68; I 2.42; W 2.08; R 1.91; G 2.62; A 2.48; Q 1.91; Y 1.32; K 2.26
L11: H 2.54; K 3.38; E 3.57; R 2.77; W 2.14; C 2.69; M 2.34; D 3.71; P 3.17; T 2.57; A 3.55; I 2.3; N 3.41; G 3.48; F 2.07; V 2.9; Y 2.42; Q 3.23
I19: E 3.3; P 2.79; T 2.61; H 2.85; V 2.63; W 2.32; G 2.85; K 2.99; Y 1.92; L 2.89; D 4.07; Q 3.62; N 3.25; R 3.1; M 2.37; F 1.85; S 2.73
K6: Q 2.24; T 1.84; E 2.27; Y 2.1; D 1.94; F 2.75; N 2.27; G 1.9; I 1.4; M 1.44; V 2.14; A 1.97; R 1.8; H 1.97; L 2.29; C 1.64; P 2.13; W 2.4; S 2.24
E8: G 2.02; Y 2.08; W 3.45; C 3.13; I 3.59; F 3.18; S 1.75; V 1.53; D 2.52; P 2.19; M 3.31; Q 2.05; N 1.8; T 2; A 1.55; R 2.26; H 1.67; K 2.52
L17: H 3.03; Q 2.19; V 3.02; K 3.19; M 2.33; A 2.5; W 1.95; Y 2.59; I 2.1; E 3.63; T 2.47; N 3.01; G 3.12; P 2.89; R 3.57; D 3.96; C 2.51; S 3.45; F 1.84
L7: Q 2.97; V 2.76; C 2.69; T 3.33; H 3.55; W 3.02; G 2.81; S 3.52; R 3.06; A 3.44; E 3.98; N 2.72; P 3.29; Y 2.85; K 3.54; F 2.37; I 2.15; M 3.05; D 4.04
Q15: T 2.2; M 1.94; Y 1.44; N 1.83; E 2.36; I 1.66; S 2.07; G 1.52; H 2.08; C 1.05; A 2.17; R 2.03; V 1.44; D 2.94; L 1.73; K 2.26; F 1.17
E13: V 2.04; K 1.83; P 1.68; L 2.22; A 1.53; C 1.64; W 2.08; Y 1.61; G 2.37; M 2.49; H 2.7; S 1.58; F 2.29; R 1.8; I 2.17; N 1.61; D 2.9; T 2.14; Q 1.43
H5: N 2.21; P 1.84; S 2.11; L 1.88; M 1.71; I 1.71; V 1.49; T 1.59; W 2.34; Y 1.61; R 2.56; K 2.62; Q 2.92
P16: R 2.02; C 2.06; S 2.57; E 2.67; N 2.94; V 2.23; Y 1.52; I 2.79; H 2.43; G 2.35; K 1.92; F 1.44; D 2.86; Q 1.97; M 1.85; T 1.96; A 2.43; L 1.88
Y12: P 2.23; I 2.64; G 2.64; H 1.54; M 2.25; S 1.87; L 2.21; F 1.19; W 2.39; C 1.82; Q 1.88; K 1.93; R 2.19; N 3.07; A 1.27; V 2.13; D 3.07; E 2.65; T 2.24
Y14: F 2.1; D 4.2; R 3.59; A 3.19; W 2.28; K 3.53; Q 2.87; S 3.36; I 2.52; P 2.94; G 3.45; E 3.43; C 2.54; M 2.42; V 2.75; L 2.1; H 3.32; N 2.99; T 3.33
